Values joined by “and” are separate entries in the source; they are usually repeats but may differ in a detail not shown here. Identical values can stand only once.
B1: FliF (S. enterica serovar typhimurium), subunit of the MS-ring whose C-terminus (FliFC) lies in the C-ring (natural protein)
chain: MSATASTATQPKPLEWLNRLRANPRIPLIVAGSAAVAIVVAMVLWAKTPDYRTLFSNLSDQDGGAIVAQLTQMNIPYRFANGSGAIEVPADKVHELRLRLAQQGLPKGGAVGFELLDQEKFGISQFSEQVNYQRALEGELARTIETLGPVKSARVHLAMPKPSLFVREQKSPSASVTVTLEPGRALDEGQISAVVHLVSSAVAGLPPGNVTLVDQSGHLLTQSNTSGRDLNDAQLKFANDVESRIQRRIEAILSPIVGNGNVHAQVTAQLDFANKEQTEEHYSPNGDASKATLRSRQLNISEQVGAGYPGGVPGALSNQPAPPNEAPIATPPTNQQNAQNTPQTSTSTNSNSAGPRSTQRNETSNYEVDRTIRHTKMNVGDIERLSVAVVVNYKTLADGKPLPLTADQMKQIEDLTREAMGFSDKRGDTLNVVNSPFSAVDNTGGELPFWQQQSFIDQLLAAGRWLLVLVVAWILWRKAVRPQLTRRVEEAKAAQEQAQVRQETEEAVEVRLSKDEQLQQRRANQRLGAEVMSQRIREMSDNDPRVVALVIRQWMSNDHE
notes: FliF, S. enterica serovar typhimurium, expressed from the fliF gene on plasmid pKLR3; residues 50-428 modelled in the MS-ring and 514-560 (FliFC) in the C-ring; no tag is told; also called MS-ring subunit; source: E. coli BL21-Gold, coexpressed from plasmid pKLR3; MSC-ring particles partially purified by differential membrane extraction
B2: FliM (S. enterica serovar typhimurium), C-ring switch subunit (natural protein, UniProt P26418 1-334, looked up)
chain: MGDSILSQAEIDALLNGDSDTKDEPTPGIASDSDIRPYDPNTQRRVVRERLQALEIINERFARQFRMGLFNLLRRSPDITVGAIRIQPYHEFARNLPVPTNLNLIHLKPLRGTGLVVFSPSLVFIAVDNLFGGDGRFPTKVEGREFTHTEQRVINRMLKLALEGYSDAWKAINPLEVEYVRSEMQVKFTNITTSPNDIVVNTPFHVEIGNLTGEFNICLPFSMIEPLRELLVNPPLENSRHEDQNWRDNLVRQVQHSELELVANFADIPLRLSQILKLKPGDVLPIEKPDRIIAHVDGVPVLTSQYGTVNGQYALRVEHLINPILNSLNEEQPK
notes: FliM, S. enterica serovar typhimurium, expressed from the fliM gene on plasmid pKLR3; FliML1 31-50, FliMmid 51-230, FliML2 231-256 and FliMC 257-330 described in the C-ring; no tag is told; also called FliML1; FliMmid; source: E. coli BL21-Gold, coexpressed from plasmid pKLR3; MSC-ring particles partially purified by differential membrane extraction

Legend:
[1] = target: the molecule itself; assay: cryo-EM structure; wild-type MSC-ring particles (CCW pose); MS-ring or C-ring removed by particle subtraction; C-ring 34-mer at 4.0 Å (33-, 35-, 36-mer classes too), MS-ring 33-mer at 3.4 Å
[2] = target: B1; assay: as above; conditions: both partners purified
[3] = target: the molecule itself; assay: cryo-EM structure; MSC-ring particles with FliG ΔPAA (CW pose); C34 symmetry applied, symmetry expansion and local refinement of three staves; 4.6 Å
[4] = target: B1; assay: as above; conditions: both partners purified
[5] = target: B2; assay: cryo-EM structure; wild-type MSC-ring particles (CCW pose); MS-ring or C-ring removed by particle subtraction; C-ring 34-mer at 4.0 Å (33-, 35-, 36-mer classes too), MS-ring 33-mer at 3.4 Å; conditions: both partners purified

Row | Binder | stoichiometry N [1] | binding result [3] | further results
1 | B1 | 33 |  | 
2 | FliG (S. enterica serovar typhimurium), wild type, C-ring switch subunit (natural protein, UniProt P0A1J9 1-331, looked up, FliG, S. enterica serovar typhimurium, expressed from the fliG gene on plasmid pKLR3; residues 1-331 modelled in the C-ring; no tag is told; also called FliGD1; FliGD2; source: E. coli BL21-Gold, coexpressed from plasmid pKLR3; MSC-ring particles partially purified by differential membrane extraction) MSNLSGTDKSVILLMTIGEDRAAEVFKHLSTREVQALSTAMANVRQISNKQLTDVLSEFEQEAEQFAALNINANEYLRSVLVKALGEERASSLLEDILETRDTTSGIETLNFMEPQSAADLIRDEHPQIIATILVHLKRSQAADILALFDERLRHDVMLRIATFGGVQPAALAELTEVLNGLLDGQNLKRSKMGGVRTAAEIINLMKTQQEEAVITAVREFDGELAQKIIDEMFLFENLVDVDDRSIQRLLQEVDSESLLIALKGAEPPLREKFLRNMSQRAADILRDDLANRGPVRLSQVENEQKAILLIVRRLAETGEMVIGSGEDTYV | 34 and 33 and 35 and 36 |  | binding result [2]: binds
3 | B2 | 34 |  | 
4 | FliG ΔPAA (S. enterica serovar typhimurium), extreme CW-biased mutant (natural protein, FliG, S. enterica serovar typhimurium, with the Pro-Ala-Ala (PAA) motif FliG 169-171 deleted; also called switch_(ΔPAA); CW-locked; source: switch particles containing the FliG ΔPAA mutation; expression and purification as told for the FliFGMN subunits (E. coli BL21-Gold, differential membrane extraction)) MSNLSGTDKSVILLMTIGEDRAAEVFKHLSTREVQALSTAMANVRQISNKQLTDVLSEFEQEAEQFAALNINANEYLRSVLVKALGEERASSLLEDILETRDTTSGIETLNFMEPQSAADLIRDEHPQIIATILVHLKRSQAADILALFDERLRHDVMLRIATFGGVQLAELTEVLNGLLDGQNLKRSKMGGVRTAAEIINLMKTQQEEAVITAVREFDGELAQKIIDEMFLFENLVDVDDRSIQRLLQEVDSESLLIALKGAEPPLREKFLRNMSQRAADILRDDLANRGPVRLSQVENEQKAILLIVRRLAETGEMVIGSGEDTYV |  | binds | binding result [4]: binds
5 | FliN (S. enterica serovar typhimurium), C-ring switch subunit (natural protein, UniProt P26419 1-137, looked up, FliN, S. enterica serovar typhimurium, expressed from the fliN gene on plasmid pKLR3; residues 45/59/63-137 of the three non-equivalent copies modelled in the C-ring; no tag is told; also called FliNC; FliN1; source: E. coli BL21-Gold, coexpressed from plasmid pKLR3; MSC-ring particles partially purified by differential membrane extraction) MSDMNNPSDENTGALDDLWADALNEQKATTTKSAADAVFQQLGGGDVSGAMQDIDLIMDIPVKLTVELGRTRMTIKELLRLTQGSVVALDGLAGEPLDILINGYLIAQGEVVVVADKYGVRITDIITPSERMRRLSR |  | binds | stoichiometry N [5]: 3 FliN per FliM
